This is an account of results in the Human Domainome abundance scans (Beltran et al. 2025).

First the molecules themselves.
B1: KAT8 regulatory NSL complex subunit 2, residues 28 to 91; numbered along this chain, Q9H9L4 (parent)
chain: CAFTHRPCSHPRLEGQEFCIKHILEDKNAPFKQCSYISTKNGKRCPNAAPKPEKKDGVSFCAEH

± gives the uncertainty stated by the source.

Variants of B1 are the subject of this series. The series can be described thus: abundance fitness (aPCA) (normalised: wild type 0, dead -1); higher = more abundant; growth selection in yeast, the domain comes from the species named. The settings on record: Homo sapiens.
In the case of CAFTHRPCSHPRLEGQEFCIKHILADKNAPFKQCSYISTKNGKRCPNAAPKPEKKDGVSFCAEH [E25A], the abundance fitness was -0.132 ± 0.059.

Turning to CAFTHRPCSHPRLEGQEFCIKHILWDKNAPFKQCSYISTKNGKRCPNAAPKPEKKDGVSFCAEH [E25W], the abundance fitness is -0.131 ± 0.097.

Regarding CAFTHRPCSHPRLEGQEFCIKHILEDKNAPFKQCSYISTKNGKRCPNAAPKPEKKDGVSFCANH [E63N], the abundance fitness is -0.062 ± 0.094.

Turning to CAFTHRPCSHPRLEGQEFCIKHILEDKNAPFKQCSYISTKNGKRCPNAAPKPEKKDGVSFCALH [E63L], the abundance fitness is -0.17 ± 0.047.

For CAFTHRPCSHPRLEGQEFCIKHILEDKNAPFKQCSYISTKNGQRCPNAAPKPEKKDGVSFCAEH [K43Q], the abundance fitness was -0.057 ± 0.13.

For CAFTHRPCSHPRLEGQEFCIKHGLEDKNAPFKQCSYISTKNGKRCPNAAPKPEKKDGVSFCAEH [I23G], the abundance fitness was -0.295 ± 0.047.

Regarding CAFTHRPCSHPRLEGQEFCIKHILEDKNAPFKQCSYISTKNGKRCPNAAPKMEKKDGVSFCAEH [P52M], the abundance fitness is -0.024 ± 0.07.

In the case of CAFTHRPCSHPRLEGQEFCIKHILEDKNAPFKQCSYISTKNGKRCPNAAPKCEKKDGVSFCAEH [P52C], the abundance fitness is -0.188 ± 0.086.

Turning to CAFTHRPCSHPRLEGQEFCIKHILEDKNAPFKQCSYISTKNGKRCCNAAPKPEKKDGVSFCAEH [P46C], the abundance fitness was -0.065 ± 0.056.

As to CAFTHRPCSHPRLEGQEFCIKHILEDKNAPFKQCSYISTKNGKRCENAAPKPEKKDGVSFCAEH [P46E], the abundance fitness was -0.031 ± 0.094.

Consider CAFTHRPCSHPRLEGQEFCIKHILEDKNAPFKQCSYISTKNGKRCYNAAPKPEKKDGVSFCAEH [P46Y], for which the abundance fitness was -0.105 ± 0.065.

As for CAFTHRPCSHARLEGQEFCIKHILEDKNAPFKQCSYISTKNGKRCPNAAPKPEKKDGVSFCAEH [P11A], the abundance fitness is -0.032 ± 0.066.

In the case of CAFTHRPCSHSRLEGQEFCIKHILEDKNAPFKQCSYISTKNGKRCPNAAPKPEKKDGVSFCAEH [P11S], the abundance fitness is -0.162 ± 0.067.

Take CAATHRPCSHPRLEGQEFCIKHILEDKNAPFKQCSYISTKNGKRCPNAAPKPEKKDGVSFCAEH [F3A]: the abundance fitness is -0.318 ± 0.087.

Turning to CAFTHRPCSHPRLEGQEFCIKHILEDKNAPFKQCSYISYKNGKRCPNAAPKPEKKDGVSFCAEH [T39Y], the abundance fitness was -0.237 ± 0.16.

With CAFTHRPCSHPRLEGQEFCIKHILEDKNAPFKQCSYISPKNGKRCPNAAPKPEKKDGVSFCAEH [T39P], the abundance fitness is -0.207 ± 0.083.

Regarding CAFTHRPCSHPRLEGQEFCIKHILEDKNAPFKQCSYISEKNGKRCPNAAPKPEKKDGVSFCAEH [T39E], the abundance fitness came out at 0.003 ± 0.33.

Regarding CAFTHRPCSHPRLEGQEFTIKHILEDKNAPFKQCSYISTKNGKRCPNAAPKPEKKDGVSFCAEH [C19T], the abundance fitness is -0.908 ± 0.07.

Regarding CAFTHRPCSHPRLEGQEFRIKHILEDKNAPFKQCSYISTKNGKRCPNAAPKPEKKDGVSFCAEH [C19R], the abundance fitness was -1.17 ± 0.063.

Consider AAFTHRPCSHPRLEGQEFCIKHILEDKNAPFKQCSYISTKNGKRCPNAAPKPEKKDGVSFCAEH [C1A], for which the abundance fitness is -0.343 ± 0.27.

In the case of CAFTHRPCSHPRLEGQEFCIKHILEDKNAPFKQCSYISTKNGKRCPNAAPKPEKKDGVSFCVEH [A62V], the abundance fitness was -0.059 ± 0.051.

In the case of CAFTHRPCSHPRLEGQEFCIKHILEDKNAPFKQCSYISTKNGKRCPNAAPKPEKKDGVSFCYEH [A62Y], the abundance fitness is -0.198 ± 0.085.

Turning to CAFTHRPCSHPRLEGQEFCIKHILEDKNAPFKQCSYITTKNGKRCPNAAPKPEKKDGVSFCAEH [S38T], the abundance fitness is -0.104 ± 0.064.

In the case of CAFTHRPCSHPRLEGQEFCIKHILEDKNAPFKQCSYICTKNGKRCPNAAPKPEKKDGVSFCAEH [S38C], the abundance fitness is -0.026 ± 0.076.

For the variant CAFTHRPCSHPRLEGQEFCIKHILEDKNAPFKQCSYILTKNGKRCPNAAPKPEKKDGVSFCAEH [S38L], the abundance fitness is -0.076 ± 0.05.

For the variant CAFTHRPCSHPRLEGQEFCIKHILEDKNAPFKQCSYISTKNGKECPNAAPKPEKKDGVSFCAEH [R44E], the abundance fitness was -0.139 ± 0.092.

Take CAFTHRPCSHPRLEGQEFCIKHILEDKNAPFKQCSYISTKNGKSCPNAAPKPEKKDGVSFCAEH [R44S]: the abundance fitness was -0.038 ± 0.05.

Consider CAFTHRPCSHPRLEGQEFCIKMILEDKNAPFKQCSYISTKNGKRCPNAAPKPEKKDGVSFCAEH [H22M], for which the abundance fitness is -1.16 ± 0.1.

Regarding CAFTHRPCSHPRLEGQEFCIKSILEDKNAPFKQCSYISTKNGKRCPNAAPKPEKKDGVSFCAEH [H22S], the abundance fitness is -0.729 ± 0.061.

As for CAFTHRPCSHPRLEGQEFCIKLILEDKNAPFKQCSYISTKNGKRCPNAAPKPEKKDGVSFCAEH [H22L], the abundance fitness was -1.34 ± 0.07.

For CAFTHRPCSHPRLEGQEFCIKHILEDKNAPFKQCSYISTKNGKRCPNAANKPEKKDGVSFCAEH [P50N], the abundance fitness was -0.126 ± 0.072.

Regarding CAFTHRPCSHPRLERQEFCIKHILEDKNAPFKQCSYISTKNGKRCPNAAPKPEKKDGVSFCAEH [G15R], the abundance fitness is -0.228 ± 0.056.

On to CAFTHRPCSHPRLEGYEFCIKHILEDKNAPFKQCSYISTKNGKRCPNAAPKPEKKDGVSFCAEH [Q16Y], for which the abundance fitness is -0.187 ± 0.17.

As for CAFTHRPCSHPRLEGMEFCIKHILEDKNAPFKQCSYISTKNGKRCPNAAPKPEKKDGVSFCAEH [Q16M], the abundance fitness is -0.146 ± 0.11.

Consider CAFTHRPCSHPRLEGCEFCIKHILEDKNAPFKQCSYISTKNGKRCPNAAPKPEKKDGVSFCAEH [Q16C], for which the abundance fitness is -0.198 ± 0.065.

For CAFTHRPCSHPRLEGQEFCIKHILEDKNAPFKQCGYISTKNGKRCPNAAPKPEKKDGVSFCAEH [S35G], the abundance fitness is -0.047 ± 0.052.

Take CAFTHRPCSHPRLEGQEFCIKHILEDKNAPFKQCIYISTKNGKRCPNAAPKPEKKDGVSFCAEH [S35I]: the abundance fitness was -0.177 ± 0.095.

In the case of CAFTHRPCSHPRLEGQEFCIKHILEDKNAPFKQCRYISTKNGKRCPNAAPKPEKKDGVSFCAEH [S35R], the abundance fitness was -0.105 ± 0.065.

As for CAFTHRPCSHPRLEGQEFCIKHILEDKNAPFKQCSYISTKNGKRCPNAAPKPEKKHGVSFCAEH [D56H], the abundance fitness was -0.055 ± 0.086.

Consider CAFTHRPCSHPRLEGQEFCIKHILEDKNAPFKQCSYISTKNGKRCPRAAPKPEKKDGVSFCAEH [N47R], for which the abundance fitness was -0.062 ± 0.065.

For CAFTHRPCSHPRLEGQEFCIKHILEDKNAPFKQCSYISTKNGKRCPTAAPKPEKKDGVSFCAEH [N47T], the abundance fitness is -0.057 ± 0.083.

Turning to CAFTHRPCSHPRLEGQEFCIKHILEDKNYPFKQCSYISTKNGKRCPNAAPKPEKKDGVSFCAEH [A29Y], the abundance fitness was -0.287 ± 0.1.
